According to patent US6380373B1, “Steroid receptor coactivator compositions and methods of use” (Baylor College of Medicine, priority 1995, dated 2002):

Columns and labels:
[1] = target: T1, hPR (Homo sapiens, UniProt P06401); assay: Squelching of hPR transactivation by hER and its reversal by SRC-1, CAT assay in HeLa cells; type: cell-based
T1 construct: expressed in transfected cells; host or cells: HeLa
T1 sequence (P06401 1-933): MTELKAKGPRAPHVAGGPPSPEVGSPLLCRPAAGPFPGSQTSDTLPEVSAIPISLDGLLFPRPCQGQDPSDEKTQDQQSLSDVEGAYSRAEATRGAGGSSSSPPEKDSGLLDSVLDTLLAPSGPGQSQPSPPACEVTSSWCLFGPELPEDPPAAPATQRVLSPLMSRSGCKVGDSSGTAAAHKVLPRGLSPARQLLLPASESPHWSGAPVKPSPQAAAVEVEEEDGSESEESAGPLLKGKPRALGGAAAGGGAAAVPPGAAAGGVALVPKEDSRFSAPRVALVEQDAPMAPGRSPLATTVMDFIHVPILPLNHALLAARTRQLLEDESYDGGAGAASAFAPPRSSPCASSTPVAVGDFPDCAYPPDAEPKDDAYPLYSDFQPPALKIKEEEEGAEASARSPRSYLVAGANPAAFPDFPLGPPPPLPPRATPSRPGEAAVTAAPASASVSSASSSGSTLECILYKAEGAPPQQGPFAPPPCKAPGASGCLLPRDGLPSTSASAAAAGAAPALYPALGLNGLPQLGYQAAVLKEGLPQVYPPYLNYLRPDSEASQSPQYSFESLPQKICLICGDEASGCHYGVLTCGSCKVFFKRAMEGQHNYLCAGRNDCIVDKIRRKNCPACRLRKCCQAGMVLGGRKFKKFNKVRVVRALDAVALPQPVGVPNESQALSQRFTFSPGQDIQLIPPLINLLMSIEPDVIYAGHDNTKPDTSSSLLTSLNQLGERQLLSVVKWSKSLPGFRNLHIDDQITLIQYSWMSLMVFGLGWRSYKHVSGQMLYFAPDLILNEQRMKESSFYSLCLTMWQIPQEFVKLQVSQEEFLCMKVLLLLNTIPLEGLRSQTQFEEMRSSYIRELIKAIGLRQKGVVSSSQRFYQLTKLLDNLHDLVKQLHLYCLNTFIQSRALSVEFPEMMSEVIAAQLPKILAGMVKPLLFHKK
Procedure: (§1) Lipofectin (GibcoBRL) was selected for transfection of Hela cells.
HeLa cells were transfected with 1 μg of both hPR and hER expression vectors, together with 5 μg of PRE2-TATA-CAT and increasing amounts of SRC-1. Cells were then exposed to ligands R5020 and/or E2 (2×10^−8 M) and CAT activities determined 42 h later using 40 μg of proteins extract. The percentage of chloramphenicol conversion to the mono and diacetylated form was determined and represents the average of three independent experiments (Xn=3±SEM).

[2] = target: T2, ER (Homo sapiens, UniProt P03372); assay: CAT reporter assay ER/ERE2-TATA-CAT in HeLa cells; type: cell-based; details: 3 μg SRC-1, estradiol 2×10^−8 M
T2 construct: expressed in transfected cells; host or cells: HeLa
T2 sequence (P03372 1-595): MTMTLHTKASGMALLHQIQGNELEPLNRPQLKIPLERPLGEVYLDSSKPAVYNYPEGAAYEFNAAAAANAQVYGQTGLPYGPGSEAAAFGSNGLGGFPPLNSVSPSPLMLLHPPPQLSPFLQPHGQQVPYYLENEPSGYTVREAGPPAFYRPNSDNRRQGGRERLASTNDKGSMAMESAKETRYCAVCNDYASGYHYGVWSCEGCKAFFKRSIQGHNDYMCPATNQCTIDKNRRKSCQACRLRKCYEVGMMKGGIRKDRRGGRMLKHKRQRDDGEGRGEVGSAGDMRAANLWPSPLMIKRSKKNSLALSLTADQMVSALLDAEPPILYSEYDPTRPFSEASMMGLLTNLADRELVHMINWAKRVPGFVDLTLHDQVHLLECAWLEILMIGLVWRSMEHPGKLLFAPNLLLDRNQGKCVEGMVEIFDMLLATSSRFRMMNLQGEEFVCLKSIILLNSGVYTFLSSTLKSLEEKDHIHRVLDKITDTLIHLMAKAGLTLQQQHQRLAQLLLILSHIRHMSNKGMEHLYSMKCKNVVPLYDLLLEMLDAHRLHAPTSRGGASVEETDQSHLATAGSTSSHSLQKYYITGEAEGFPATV
Procedure: Biol. 13, 6501-6508), Sp1 and Sp1-tk-CAT (Courey, A. J. and Tjian, R. (1988), Cell 55, 887-898), CREB and CRE-tk-CAT (Chrivia, J. C. et al., (1993), Nature 365, 855) and GAL4VP16 and 17mer-tk-CAT (Baniahmad, A. et al., (1992), EMBO J. 11, 1015-1023) have been previously described and the above references are incorporated herein by reference in their entirety, including any drawings.
as §1
HeLa cells were cotransfected with 0.5 μg of cDNAs encoding various steroid receptors indicated and 5 μg of their cognates HREs containing reporters, including PR/PRE2-TATA-CAT, ER/ERE2-TATA-CAT, GR/PRE2-TATA-CAT, TR-/DR4-tk-CAT and RXR/DR1-tk-CAT, along with 3 μg of SRC-1 or empty expression vector. Cells were then treated with their corresponding ligands (PR:R5020, ER:estradiol, GR:dexamethasone, TR:Triac, RXR:9-cis retinoic acid) at a concentration of 2×10^−8M. The CAT activity of the reporter was determined using 14 μg of protein extract.

B1: steroid receptor coactivator-one (SRC-1), full-length (protein)
chain: MSIPRVNPSVNPSISPAHGVARSSTLPPSNSNMVSTRINRQQSSDLHSSSHSNSSNSQGSFGCSPGSQIVANVALNKGQASSQSSKPSLNLNNPPMEGTGISLAQFMSPRRQVTSGLATRPRMPNNSFPPNISTLSSPVGMTSSACNNNNRSYSNIPVTSLQGMNEGPNNSVGFSASSPVLRQMSSQNSPSRLNIQPAKAESKDNKEIASTLNEMIQSDNSSSDGKPLDSGLLHNNDRLSDGDSKYSQTSHKLVQLLTTTAEQQLRHADIDTSCKDVLSCTGTSNSASANSSGGSCPSSHSSLTARHKILHRLLQEGSPSDITTLSVEPDKKDSASTSVSVTGQVQGNSSIKLELDASKKKESKDHQLLRYLLDKDEKDLRSTPNLSLDDVKVKVEKKEQMDPCNTNPTPMTKATPEEIKLEAQSQFTADLDQFDQLLPTLEKAAQLPGLCETDRMDGAVTSVTIKSEILPASLQSATARPTSRLNRLPELELEAIDNQFGQPGTGDQIPWTNNTVTAINQSKSEDQCISSQLDELLCPPTTVEGRNDEKALLEQLVSFLSGKDETELAELDRALGIDKLVQGGGLDVLSERFPPQQATPPLIMEERPNLYSQPYSSPFPTANLPSPFQGMVRQKPSLGTMPVQVTPPRGAFSPGMGMQPRQTLNRPPAAPNQLRLQLQQRLQGQQQLIHQNRQAILNQFAATAPVGINMRSGMQQQITPQPPLNAQMLAQRQRELYSQQHRQRQLIQQQRAMLMRQQSFGNNLPPSSGLPVQTGNPRLPQGAPQQFPYPPNYGTNPGTPPASTSPFSQLAANPEASLANRNSMVSRGMTGNIGGQFGTGINPQMQQNVFQYPGAGMVPQGEANFAPSLSPGSSMVPMPIPPPQSSLLQQTPPASGYQSPDMKAWQQGAIGNNNVFSQAVQNQPTPAQPGVYNNMSITVSMAGGNTNVQNMNPMMAQMQMSSLQMPGMNTVCPEQINDPALRHTGLYCNQLSSTDLLKTEADGTQQVQQVQVFADVQCTVNLVGGDPYLNQPGPLGTQKPTSGPQTPQAQQKSLLQQLLTE
- reversal of hER squelching of hPR transactivation ([1]; HeLa cells, increasing amounts of SRC-1, dose-dependent, in the presence of estrogen): ~16 fold
- stimulation of PR transactivation ([1]; highest concentration of SRC-1 (2 μg), without estrogen squelching): ~5 fold
- effect on ER transcriptional activity [2]: enhance
